# Data reported in CN114106161A (ANYUAN MEDICINE SCIENCE AND TECH SHANGHAI LIMITED COMPANY, dated 2022).
# B1: 人源化抗体hS1B-73-3 (antibody, V domains shown)
# VH: EVQLVQSGAEVKKPGSSVKVSCKASGYAFTNFLIEWVREAPGQGLEWIGMINPGSGDTNYNEKFKGKATLTADKSTSTVYMELSSLRSEDTAVYFCARQLGLPGFVYWGRGTTVTVSS
# VL: DIQMTQSPSSLSASVGDRVTITCKASQDINSYLTWLQQKPGKSPKTLIYRANRLVEGVPSRFSGSGSGQDFTLKISSLQPEDIATYYCLQHDEFPLTFGQGTKLEIKR
# notes: also called 抗SARS-CoV-2S1 RBD人源化抗体hS1B-73-3
# How the values were obtained:
# [1] = molecular target: T1, SARS-CoV-2 S1蛋白 (ACRO Biosystems) (SARS-CoV-2, UniProt P0DTC2 16-685); assay: competition ELISA, S1 coated, competitor HRP-labelled hACE2-Fc
# T1 construct: domain: S1; also called SARS-CoV-2S1抗原; 生物素化SARS-CoV-2S1
# 刺突S-鼠Fc融合蛋白 (S-mFc) = 刺突S-鼠Fc融合蛋白 (S-mFc) (SARS-CoV-2; mouse, UniProt P0DTC2 14-1213); assay: flow cytometry, blocking of S-mFc binding to 293T-ACE2 cells
# [2] = molecular target: T1, SARS-CoV-2 S1蛋白 (ACRO Biosystems); assay: BLI, biotinylated SARS-CoV-2 S1 on SA sensor, antibody as analyte, 1:1 fit
binder,measurement,setting,value
B1,EC50,[1],0.0254 µg/mL
same,IC50,刺突S-鼠Fc融合蛋白 (S-mFc),0.00433 µg/mL
same,Kd,[2],20.7 pM
same,koff,[2],2.22e-05 s⁻¹
same,kon,[2],1.07e+06 M⁻¹ s⁻¹
